Test results as given in the nanobody polyreactivity screen of Harvey et al. (2022).

test: yeast display, Sf9 membrane polyspecificity reagent, FACS + sequencing; frameworks hold sequencing errors
Procedure, shortened: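 After 36–48 hours of galactose induction, yeast (Saccharomyces cerevisiae BJ5465) displaying a synthetic nanobody library were stained at 4 °C for 1 hour with 10% biotinylated, detergent-solubilized Sf9 membrane reagent. Streptavidin microbeads enriched the stained cells before FACS sorting into low and high (top ~1%) gates on anti-HA and streptavidin fluorescence. Each clone's polyreactivity label reflects its gate of origin.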

Sequence	polyreactivity (PSR sort gate)
QVQLVESGGGLVQAGCSLRLSCAASGRTFGRNAMGWNRQAPGKERELVAAITSGGSTSYADSVKGRFTISRDNAKNTVYLQMNSLKPEDTAVYYCAADVRPYYTRRVWIQFDYWGQGTQVTVSS	high polyreactivity
QVQPVESGAGLVQAGGSLRLSCAASGSIFWSYAMGLYRQAPGKERELVAAITTSDGSTYYADSVKWRFTISRDNAKNTVYLQMNSLKPEDTAVYYCAADTYYVSYGYYYWGQGTQVTVSS	low polyreactivity
QVQLVESGGGLVQAGGSLRLSCAASGRIFYYYAMGWYRQAPGKERELVAGIDSGDSTNYADSVKGRFTISRDNAKYTVYLQMNSLKPEDTAVYYCAALHFGGYFSYYPYYYWGQGTQVTVSS	low polyreactivity
HVQLVESGGGLVQAGGSLRLSCAASGTFYKNAMGWYRQAPGKERELVAAISWRGGRTYADSVKGRFTISRDNAKNSVYLQMNSLKPEDTAVYYCNKRFYPEHYYWGQGTQVTVSS	high polyreactivity
QVQLVESAGGLVQAGGSLRLSCAASGRIFRANAMGWYRQAPGKERELVATIRNSGGITYYADSVKGRFTISRDHAKNTVYLQMNSLIPEDTAVYYCAKLGRYGYDYWGQGTQVTVSS	high polyreactivity
QVQLVESGGGLVQAGGSLRLSCAASGRIFYPYAMGWYRQAPGKERELVAAISARGGSTYYADSVKGRFTISRDNAKNTVYLQMNSLKPEDTAVYYCATYTYRGVAEMDYWGQGTQVTVSS	high polyreactivity
QVQLVESGGGLVQAGGSLRLSCAASGSILSGNTMGWYRPAPGKERELVAAISYGGGSTYYADSVKGRFTISRDNAKNTVYLQMNSLKPEDTAVYYCAADPWYVAYLLDGYGMDYWGQGTQVTVSS	low polyreactivity
QVQLVESGGGLVQAGGSLRISCAASGFILTGYTMGWYRQAPGKERELVAAISWSGARTYYADSVKGRFTISRDNAMNTVYLQMNSLKPEDTAVYYCARDYYRPTQRYDYWGQGTQVTVSS	high polyreactivity
QDQLVESGGGLVQAGGSLRLSCAASGRNFGYYTRGWYRQAPGKERELVATINWSGGNTYYADSVKGRFTISRDNAKNTVYLQMTCLKPEDTAVYYCATRSRAPQQVYYQNYDYWGQGTQVTVSS	high polyreactivity
QVQLVDSGGGLVQAGGSLRLSSAASGSTFAVNAMGWYIQARGKERELVAAISDSDGSTFYADSVKGRFTISRDNAKNTVYLQMNSLKPEDTAVYYCAATVYRVFRYSYLYYYWGQGTQVTVSS	low polyreactivity
QVQLVESGGGLVQAGGSLRLSWAASGHTFHGYDMGWYRQEPGKERDLVAAITSTGGSTHYSDSVKGRFTISRDNAKNTVYLQMNSLKPEDTAVFFCANRSYGLTRAYSAGNFWGQGTQVTVSS	low polyreactivity
QVQLVESAGGLVQAGGSLRLSCAASGSIFLSNAMGWYRQAPGTERALVADIDWTGGDTYYADSVKGRFTISRDNAKNTVYLQMNSLKPEDTAFYYCAADYGYRNLLTEYGYWGQGTQVTVSS	low polyreactivity
QVQLVESGGGLVQAGGSLRLSCAASGRTFRRYAMGLYRQAPGKERELVASISTSGGSTYADSVKGRFTISRDNAKNTVYLQMNSLKPEDTAVYYCAVRSPRYVRNGDYWGQGTQVTVSS	high polyreactivity
QVQLVESGGGLVQAGGSLRLSCAASGITFTYYAMGWYRQAPGKVRELVAGISSGTRTYYADSVKGRFTISRDNAKNTVYLQMNSLKPEDTAVYYCAARTGSRYSRGDYWGHGTQVTVSS	high polyreactivity
QVQLVESGGGLVQAGGSLRVSCAASGGIFGWYAMGWSRQAPGKERELVATITWRGGRTYYADSVKGRCTISRDNAKNTVYLQLTSLKPESTAVYYCTAEWLWYDAGYRYTIRDSWGQGTQVTESS	low polyreactivity
QVQLVESGGGLVQAGGSLRLSCAASGLTFGDYVMGWYRQAPGKERELVATITSDGGTTYADSVKGRFTISRDNAKNTVYLQMNSLKPEVTAVYYCYADAVVDNYVGFSAAGFDYWGQGTQVTVSS	low polyreactivity
QVQLQESGGGLVQAGGSLRLSCAASGYISSWYPMGWYRQAPGKEREFVATIAPRATTYYADSVKGRFTISRDYAKNTVYLQMNSLKPEDTAVYYCAAGPENNDVYSYWGQGTQVTVSS	low polyreactivity
QVQLVESGGGLVQAGGSLRLSCAASGSTLVTYAMGWYRQAPGKERELVAGISSGGSTNYADSVKGRFTISRDNAKNTVYLQMNSLKPEDTAVYYCAAQGSLTWWAATFIYDYWGQGTQVTVSS	low polyreactivity
HVHLVESGGGLVQAGGRLRLTCAASGRTFQKYAMGWYREAPRKERELVAAITTSGGSTYYADSVKGRFTISRDYAKYTVYLQMNSLKPEDTAVYYCNKAYAYAGHDYDWGQGTKVTVSS	high polyreactivity
QVQLVESGGGLVQAGGSLRLSCAASGSIRYYAMGWYRQAPGKERELVAAISSRGTNTYYADSVKGRFTISRDNAKNTVYLQMNSLKPEDTAVYYCNAVVGLGYNYWGQGTQVTVSS	high polyreactivity
QVQLVESGGGLVQAGGSLRLSCAASGFNFGYNALGRYRQAPGKEREMVAAISSGGSTYYADSVKGRFTISRDNAKNTVYLQMNSLQPEDTAVYYCAVELGYPIQSYALWWDFEYWGQGTQVTGSS	low polyreactivity
QVQLVESGGGLVQAGGSLRLTCAASGSTFYSNAMGWYRQATGKERELVASIRFSGVITTYADSVKGRFTISRDNAKNTVYLQMNSLKPEDTAVYYCAAGYLSTTAYDYWGQGTQVTVSS	low polyreactivity

Sequence	polyreactivity (PSR sort gate)
QVQLVESGGGLVQAGGSLRLTCAASGSTFIRNTMGWYRQAPGKERELVAAISRSGVRTYYADSVKGRFTISRDNAKNTVYLQMNSLKPEDTAVYYCNVLRYRLWGQGTQVTVSS	high polyreactivity
QVQLVESGGGLVQAGGSLRLSCAASGRIFGTNAMGWYRQAPGKERELVAAISRSGGSTYYADSVKGRFTISRDNAKNTVYLQMNSLKPEDTAVYYCATDGRHTYYYWGQGTQVTVSS	high polyreactivity
QVQLVESGGGLVQAGGSLRLSCAASGSIFGYYTMGWYRQAPGKERELVATITSGGSTYYADSVKGRFTISRDNAKNTVYLQMNSLKPEDTAVYYCNADWYWRVYWGQGTQVTVSS	high polyreactivity
QVQLVESGGGLVQAGGSLRLSCAASGFTFTYNAMGWYRKAPGKERELVAALTANGGGTNYADSVKGRFTISRDNAKNTVYLQMNSLKPEDTAVYYCAATIVVAVFESLGFYWYTEDNYWGQGTQVTVSS	low polyreactivity
QVQLVESGGGLVQAGGSLRFSCAASGTFVPYAMGWYRQAPGKEMELVARITWRGGSTYYADSVKGRFTISRDNAKNTVDLQLNSLKPEDTAVYYCATVSDNRYYYWGQGTQVTVSS	low polyreactivity
QVQLVESGGGLVQAGGSLRLSCAASGSTFVYNAMGWYRQAPGKERELVAAITVSDGSTYYADSVKGRFTISRDNAKNTVYLQMNSLKPEDTAVYYCNADFPRKTRYEYWGQGTQVTVSS	low polyreactivity
QVQLVESGGGLVQAGGSLRLSCAASGRIFVIYAMGWYRQAPGKERELVAVINDDGSTNYADSVKGRFTISRDNAKNTVYLQMNSLKPEDTAVYYCAARGGRPLIHHWPWYSWKYDYWGQGTQVTVSS	low polyreactivity
QVQLVESGGGLVQAGGSLRLSCAASGSTFGGNGMGWYRQAPGKEREFVATITWRSGSTYYADSVKGRFTISRDNAKNSVYLQMNSLKPEDSAVYYCAKYTSSRRNTWYYYWGQGTQVTVSS	high polyreactivity
QVQHVESGGGLVQAGGSLRLSCAASRLTFTRNAMGWYRQAPGKERELVAAITRSSGSTYYADSVKGRFTISRDNAKNTVYLQMNSLKPEDTAVYYCNARRAAYYHRARELDYWGQGTQVTVSS	high polyreactivity
QVQLVESGGGLVQAGGSLRLSCAASGSTFDDYAMGWYRPAPGKERELVAAISSDGSTNYADSVKGRFTISRDNAKNTVYLQMNSLKPEDTAVYYCAAESPWDWGYWFEALYDYWGQGTQVNVSS	high polyreactivity
QVQLVESGGGLVQAGGSLRLSCAASGRIFTAYAMGWYRQAPGKERELVAAISSGDSTYYADSVKGRFTISRDNAKNTVYLQMNSLKPEDTAVYYCAAEGYLWGQSYNGLNYDSWGQGTQVTVSS	low polyreactivity
QVQLVESGGGLVQAGGSLRLSCAASGRIFGKNAMGWYRQAPGKERELVAAIRGNGGSTYYADSVKGRFTISRDNAKNTVYLQFNSLKPEDTAVYYCAARASAYFGRYYLYDYWGQGTQVTVSS	high polyreactivity
QFQLLESGGGLVQAGGSLRLSCADSGSIYLYYARGWYRQAPGKESELVAAITYSGVSTYDAVSVKGRFTISRDTSNNTVYLQMNSLKPEDNAFYDCARRWNAFGSKGVYWGQGTQVTVSS	high polyreactivity
QVQLVESGGGLVQAGGSLRLSCAASGRTFGGYAMGWYRQAPGKERELVAAINYSGGTTYYADSVKGRFTISRDNAKNTVYLQMNSLKPEDTAVYYCAASDCYGLFYGGPTWWKGHDYWGQGTQVTVSS	high polyreactivity
QVQLVESGGGLVQAGGSLRLSCADSGSIFYRYAMGWYRQAPGKERELGAAISQSGGSTYYADSVKGRFTISRDNAKNTVYLQMNSLKPEDTAVYYCQLIRRGHDYWGQGTQVTVSS	high polyreactivity
QVQLVESGGGLVQAGGSLRLSCAASGRTFYANAMGWYRHAPGKERELVASITGSGGRTYYADSVKGRFTISRDNAKNTVYLLMNSLKPEDTAVYYCNADPGWVYRDYEPNGLDYWGQGTQVTVSS	low polyreactivity
QVQLVESVGGLVQAGGSLRLSCAASGRTFWWNAMGWYRQAPGKEREFVAAIRSTGGRTYYADSVKGRFTISRDNAKNTVYLQMNSLKPEDTAVYYCAAYTLDPYGFLYEYWGQGTQVTVSS	high polyreactivity
QVQLVESVGGLVLAGARLRLSCAASGRIFRFYAMGWYREAPGKERELVAAISSGGRTYSADSVKGRFTISRDNAKNTVYLQMNSLKPEDTAVYYCNTPYTVRGRYTSDYWGQGTQVTVSS	high polyreactivity
QVQLVETGGGLVQAGGSLRLSCAASGSIFWYYAMGWYRQAPGKERELVAAISAYGSSTYYADSVKGRFTISRDNAKNTVYLQMNSLKPEDTAVYYCAATYILYNDWLYHYFPEEYDYWGQGTQVTVSS	low polyreactivity
QVQLVESGGGLVQAGGSLRLSCAASGRTFVRYAMGWYRQAPGKERELVAAISWSGATTYYADSVKGRFTISRDNAKNTVYLQMNSLKPEDTAVYYCAARFRRGITYEYWGQGTQVTVSS	high polyreactivity
QVQLVESGGGLVQAGGSLRLSCAASGSTFRYYGMGWYRQAPGKERELVAAISTGGRTNYADSVKGRFTISRDNAKNTVYLQMNSLKPEDTAVYYCAADFLSPAYRPSWYRFDYWGQGTQVTVSS	low polyreactivity
